Measurements taken from article PMC9352680, “A comprehensive thermodynamic model for RNA binding by the Saccharomyces cerevisiae Pumilio protein PUF4”.
Residue numbers refer to the chain shown, from its start. Names may count otherwise.

T1: PUF4 RNA-binding domain (Saccharomyces cerevisiae, UniProt P25339 537-888)
T1 sequence: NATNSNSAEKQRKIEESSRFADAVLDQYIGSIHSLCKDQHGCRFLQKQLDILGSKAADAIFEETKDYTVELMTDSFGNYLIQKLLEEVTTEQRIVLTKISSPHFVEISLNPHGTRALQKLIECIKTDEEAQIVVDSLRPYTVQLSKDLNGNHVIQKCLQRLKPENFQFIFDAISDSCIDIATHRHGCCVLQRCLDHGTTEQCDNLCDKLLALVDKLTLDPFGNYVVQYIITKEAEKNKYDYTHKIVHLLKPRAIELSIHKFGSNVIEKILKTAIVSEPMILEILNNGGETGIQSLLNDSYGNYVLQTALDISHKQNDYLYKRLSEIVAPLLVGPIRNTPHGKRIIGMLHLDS

B1: Id_ii_S2_P4E.2_K4.1_C4.2_[C-2T]_[T-1A]_H4.1_A4.1_F4.1_T4.2_[G10T] (ssRNA)
RNA: UUUGAUUAAUAUGAUAUCGUUCUUUCUUAUGUAUAUUAUUUUCUUUCUCGAUAUCAUAUUAAUCUUU
B2: Id_ii_S2_P4E.2_K4.1_C4.2_[C-2T]_[T-1A]_H4.1_A4.1_F4.1_T4.2_[G10A]_[T11A] (ssRNA)
RNA: B1 RNA with U39A, U40A
B3: Id_ii_S2_P4E.2_K4.1_C4.2_[C-2T]_[T-1A]_H4.1_A4.1_F4.1_T4.2_[G10A] (ssRNA)
RNA: B1 RNA with U39A
B4: Id_ii_S2_P4E.2_K4.1_C4.2_[C-2T]_[T-1A]_H4.1_A4.1_F4.1_T4.2_[T11C] (ssRNA)
RNA: B1 RNA with U39G, U40C
B5: Id_ii_S2_P4E.2_K4.1_C4.2_[C-2T]_[T-1A]_H4.1_A4.1_F4.1_T4.2 (ssRNA)
RNA: B1 RNA with U39G
B6: Id_ii_S2_P4E.2_K4.1_C4.2_[C-2T]_H4.1_A4.1_F4.1_T4.2_[G10C]_[T11C] (ssRNA)
RNA: B1 RNA with A29U, U39C, U40C
B7: Id_ii_S2_P4E.2_K4.1_C4.2_[C-2T]_H4.1_A4.1_F4.1_T4.2_[G10C] (ssRNA)
RNA: B1 RNA with A29U, U39C
B8: Id_ii_S2_P4E.2_K4.1_C4.2_[C-2T]_H4.1_A4.1_F4.1_T4.2_[G10T]_[T11G] (ssRNA)
RNA: B1 RNA with A29U, U40G
B9: Id_ii_S2_P4E.2_K4.1_C4.2_[C-2T]_H4.1_A4.1_F4.1_T4.2_[G10T]_[T11C] (ssRNA)
RNA: B1 RNA with A29U, U40C
B10: Id_ii_S2_P4E.2_K4.1_C4.2_[C-2T]_H4.1_A4.1_F4.1_T4.2_[G10T]_[T11A] (ssRNA)
RNA: B1 RNA with A29U, U40A
B11: Id_ii_S2_P4E.2_K4.1_C4.2_[C-2T]_H4.1_A4.1_F4.1_T4.2_[G10T] (ssRNA)
RNA: B1 RNA with A29U
B12: Id_ii_S2_P4E.2_K4.1_C4.2_[C-2T]_H4.1_A4.1_F4.1_T4.2_[G10A] (ssRNA)
RNA: B1 RNA with A29U, U39A
B13: Id_ii_S2_P4E.2_K4.1_C4.2_[C-2T]_H4.1_A4.1_F4.1_T4.2_[T11C] (ssRNA)
RNA: B1 RNA with A29U, U39G, U40C
B14: Id_ii_S2_P4E.2_K4.1_C4.2_[C-2T]_H4.1_A4.1_F4.1_T4.2 (ssRNA)
RNA: B1 RNA with A29U, U39G
B15: Id_ii_S2_P4E.2_K4.1_C4.2_[C-2A]_[T-1G]_H4.1_A4.1_F4.1_T4.2_[G10T]_[T11G] (ssRNA)
RNA: B1 RNA with U28A, A29G, U40G
B16: Id_ii_S2_P4E.2_K4.1_C4.2_[C-2A]_[T-1G]_H4.1_A4.1_F4.1_T4.2_[G10T]_[T11C] (ssRNA)
RNA: B1 RNA with U28A, A29G, U40C
B17: Id_ii_S2_P4E.2_K4.1_C4.2_[C-2A]_[T-1G]_H4.1_A4.1_F4.1_T4.2_[G10A]_[T11A] (ssRNA)
RNA: B1 RNA with U28A, A29G, U39A, U40A
B18: Id_ii_S2_P4E.2_K4.1_C4.2_[C-2A]_[T-1G]_H4.1_A4.1_F4.1_T4.2_[G10A] (ssRNA)
RNA: B1 RNA with U28A, A29G, U39A
B19: Id_ii_S2_P4E.2_K4.1_C4.2_[C-2A]_[T-1C]_H4.1_A4.1_F4.1_T4.2_[G10C] (ssRNA)
RNA: B1 RNA with U28A, A29C, U39C
B20: Id_ii_S2_P4E.2_K4.1_C4.2_[C-2A]_[T-1C]_H4.1_A4.1_F4.1_T4.2_[G10T]_[T11G] (ssRNA)
RNA: B1 RNA with U28A, A29C, U40G
B21: Id_ii_S2_P4E.2_K4.1_C4.2_[C-2A]_[T-1C]_H4.1_A4.1_F4.1_T4.2_[G10T]_[T11C] (ssRNA)
RNA: B1 RNA with U28A, A29C, U40C
B22: Id_ii_S2_P4E.2_K4.1_C4.2_[C-2A]_[T-1C]_H4.1_A4.1_F4.1_T4.2_[G10T]_[T11A] (ssRNA)
RNA: B1 RNA with U28A, A29C, U40A
B23: Id_ii_S2_P4E.2_K4.1_C4.2_[C-2A]_[T-1C]_H4.1_A4.1_F4.1_T4.2_[G10T] (ssRNA)
RNA: B1 RNA with U28A, A29C
B24: Id_ii_S2_P4E.2_K4.1_C4.2_[C-2A]_[T-1C]_H4.1_A4.1_F4.1_T4.2_[G10A]_[T11C] (ssRNA)
RNA: B1 RNA with U28A, A29C, U39A, U40C
B25: Id_ii_S2_P4E.2_K4.1_C4.2_[C-2A]_[T-1C]_H4.1_A4.1_F4.1_T4.2_[G10A]_[T11A] (ssRNA)
RNA: B1 RNA with U28A, A29C, U39A, U40A
B26: Id_ii_S2_P4E.2_K4.1_C4.2_[C-2A]_[T-1C]_H4.1_A4.1_F4.1_T4.2_[G10A] (ssRNA)
RNA: B1 RNA with U28A, A29C, U39A
B27: Id_ii_S2_P4E.2_K4.1_C4.2_[C-2A]_[T-1A]_H4.1_A4.1_F4.1_T4.2_[G10C]_[T11C] (ssRNA)
RNA: B1 RNA with U28A, U39C, U40C

Target: T1, PUF4 RNA-binding domain
Test: Mg; RNA-MaP; 20 mM Na-HEPES pH 7.4, 30 mM KOAc, 0.75 mM MgCl2, 0.1% Tween-20, 5% glycerol, 0.1 mg/mL BSA, 2 mM DTT; 25 C; 0.0125-409.6 nM protein
Conditions: tags: N-His6-TEV cleaved; C-SNAP kept, Cy3B-labelled; label: tethered on chip by stalled RNA polymerase

Binder | Kd
B1 | 0.502 nM
B2 | 1.03 nM
B3 | 0.878 nM
B4 | 0.523 nM
B5 | 0.715 nM
B6 | 0.557 nM
B7 | 0.762 nM
UCUCUUAGUAUUAUUGUCUCUU (ssRNA) [Ib_S1_P5E.1_K5.1_C5.1_H5.1_[T1A]_A5.1_F5.1_[A10G]_T5.1] | > 2300 nM
B8 | 0.421 nM
B9 | 0.364 nM
B10 | 0.564 nM
B11 | 0.26 nM
B12 | 0.408 nM
B13 | 0.396 nM
B14 | 0.456 nM
B15 | 1.63 nM
B16 | 2.27 nM
B17 | 1.64 nM
UCUCUUGGUAUUAUUCUCUCUU (ssRNA) [Ib_S1_P5E.1_K5.1_C5.1_H5.1_[T1G]_A5.1_F5.1_[A10C]_T5.1] | > 2300 nM
B18 | 0.973 nM
B19 | 1.25 nM
B20 | 1.95 nM
B21 | 0.33 nM
B22 | 0.628 nM
B23 | 0.296 nM
B24 | 0.678 nM
B25 | 0.702 nM
B26 | 0.442 nM
B27 | 2.15 nM
